± gives the standard deviation of the averaged measurements.
Experiments:
Saccharomyces cerevisiae [1] = assay: protein stability index of tFT-peptide fusion (C-terminal peptide) (PSI (0-1 scale)); higher = more stable (slower turnover)
Procedure: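 MPS profiling in S. cerevisiae of the tFT-X12 degron library: putative degron peptides plus stable controls, 12 aa, fused to the C-terminus of a sfGFP-mCherry timer. Cells are FACS-sorted into 8 mCherry/sfGFP bins and deep-sequenced. PSI runs from 0 (unstable) to 1 (stable). Backgrounds are wild type, das1Δ and doa10Δ at 30 °C, and wild type, das1Δ, cdc34-1 and cdc53-1 at 37 °C; 2-3 technical replicates each.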

Saccharomyces cerevisiae [2] = assay: as above; conditions: genetic background: wild type; temperature: 30 C
[3] = genetic background: cdc34-1, temperature: 37 C
[4] = genetic background: cdc53-1, temperature: 37 C
[5] = genetic background: das1 deletion, temperature: 30 C
[6] = genetic background: das1 deletion, temperature: 37 C
[7] = genetic background: doa10 deletion, temperature: 30 C
[8] = genetic background: wild type, temperature: 30 C
[9] = genetic background: wild type, temperature: 37 C
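Further: PSI is a weighted mean of sequencing reads over stability bins, variants kept only with over 10 reads, mCherry proximal and sfGFP distal, peptide attached via GGGS linker.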

Row | Sequence | protein stability index (Saccharomyces cerevisiae [1]; [3]) | protein stability index (Saccharomyces cerevisiae [1]; [4]) | protein stability index (Saccharomyces cerevisiae [1]; [5]) | protein stability index (Saccharomyces cerevisiae [1]; [6]) | protein stability index (Saccharomyces cerevisiae [1]; [7]) | protein stability index (Saccharomyces cerevisiae [1]; [8]) | protein stability index (Saccharomyces cerevisiae [1]; [9]) | protein stability index (Saccharomyces cerevisiae [2])
1 | VIWVLGALASWG | 0.5892 ± 0.0018 | 0.6304 ± 0.0041 | 0.479 ± 0.035 | 0.632 ± 0.011 | 0.468 ± 0.02 | 0.479 ± 0.0059 | 0.618 ± 0.015 | 0.556 ± 0.098
2 | VKVIILYKIIEV | 0.353 ± 0.045 | 0.494 ± 0.044 | 0.327 ± 0.029 | 0.5352 ± 0.0045 | 0.29 ± 0.0094 | 0.323 ± 0.027 | 0.549 ± 0.08 | 0.381 ± 0.038
3 | VLAYFCYVVFVI | 0.306 ± 0.01 | 0.343 ± 0.0056 | 0.27 ± 0.0087 | 0.3896 ± 0.0036 | 0.291 ± 0.0044 | 0.263 ± 0.011 | 0.354 ± 0.0069 | 0.314 ± 0.016
4 | VLCMSIFIVFGI | 0.197 ± 0.031 | 0.287 ± 0.023 | 0.195 ± 0.024 | 0.352 ± 0.019 | 0.1774 ± 0.0013 | 0.196 ± 0.011 | 0.303 ± 0.011 | 0.371 ± 0.052
5 | VLLLLGGIVCVM | 0.236 ± 0.01 | 0.227 ± 0.018 | 0.222 ± 0.024 | 0.412 ± 0.0065 | 0.206 ± 0.012 | 0.229 ± 0.018 | 0.395 ± 0.019 | 0.327 ± 0.026
6 | VLLLRRPLLVFS | 0.0781 ± 0.025 | 0.105 ± 0.037 | 0.149 ± 0.028 | 0.229 ± 0.014 | 0.128 ± 0.017 | 0.148 ± 0.024 | 0.187 ± 0.0061 | 0.244 ± 0.021
7 | VLLVRIFLCWVC | 0.178 ± 0.013 | 0.256 ± 0.049 | 0.184 ± 0.017 | 0.338 ± 0.0097 | 0.13 ± 0.0046 | 0.118 ± 0.016 | 0.1826 ± 0.001 | 0.16 ± 0.039
8 | VLLYRIAPRLLH | 0.597 ± 0.079 | 0.6841 ± 0.0027 | 0.6298 ± 0.0035 | 0.735 ± 0.016 | 0.181 ± 0.019 | 0.202 ± 0.023 | 0.4082 ± 0.0026 | 0.303 ± 0.03
9 | VLSLYWLIISRL | 0.717 ± 0.04 | 0.736 ± 0.0093 | 0.616 ± 0.016 | 0.742 ± 0.012 | 0.446 ± 0.021 | 0.42 ± 0.0056 | 0.566 ± 0.021 | 0.4672 ± 0.00061
10 | VLVSVSLRVCMV | 0.0542 ± 0.021 | 0.101 ± 0.025 | 0.106 ± 0.03 | 0.206 ± 0.015 | 0.083 ± 0.012 | 0.108 ± 0.024 | 0.178 ± 0.016 | 0.162 ± 0.039
11 | VLVVLRSEVSLS | 0.286 ± 0.0038 | 0.398 ± 0.022 | 0.227 ± 0.027 | 0.3847 ± 0.0022 | 0.1948 ± 0.0011 | 0.22 ± 0.02 | 0.371 ± 0.0053 | 0.284 ± 0.015
12 | VLVVVAFVALPR | 0.264 ± 0.0083 | 0.41 ± 0.053 | 0.285 ± 0.015 | 0.485 ± 0.035 | 0.275 ± 0.01 | 0.282 ± 0.032 | 0.461 ± 0.031 | 0.372 ± 0.016
13 | VLWSCCGGVRVR | 0.587 ± 0.014 | 0.629 ± 0.013 | 0.465 ± 0.023 | 0.65 ± 0.022 | 0.452 ± 0.03 | 0.483 ± 0.0067 | 0.612 ± 0.018 | 0.516 ± 0.036
14 | VLWVYLFLFVIF | 0.266 ± 0.04 | 0.291 ± 0.033 | 0.248 ± 0.022 | 0.346 ± 0.0079 | 0.235 ± 0.025 | 0.211 ± 0.019 | 0.325 ± 0.019 | 0.255 ± 0.05
15 | VLYSRFPPPLIA | 0.51169 ± 7.2e-05 | 0.537 ± 0.0073 | 0.43 ± 0.022 | 0.554 ± 0.02 | 0.396 ± 0.0062 | 0.415 ± 0.023 | 0.5375 ± 0.0029 | 0.4803 ± 0.0032
16 | VMWFVLVGLCIL | 0.4219 ± 0.0041 | 0.449 ± 0.035 | 0.382 ± 0.044 | 0.506 ± 0.021 | 0.366 ± 0.0077 | 0.378 ± 0.018 | 0.496 ± 0.006 | 0.473 ± 0.033
17 | VNTLCCVFRCNL | 0.96 ± 0.0047 | 0.9524 ± 0.0023 | 0.816 ± 0.013 | 0.889 ± 0.026 | 0.8247 ± 0.0043 | 0.826 ± 0.028 | 0.8905 ± 0.0035 | 0.805 ± 0.045
18 | VPRGAALIFLCF | 0.574 ± 0.043 | 0.646 ± 0.025 | 0.53 ± 0.036 | 0.6215 ± 0.0013 | 0.449 ± 0.025 | 0.464 ± 0.023 | 0.582 ± 0.0063 | 0.517 ± 0.055
19 | VPRSLYSVLRLA | 0.525 ± 0.062 | 0.685 ± 0.026 | 0.652 ± 0.044 | 0.714 ± 0.012 | 0.0744 ± 0.01 | 0.0833 ± 0.0025 | 0.11 ± 0.0054 | 0.2 ± 0.025

Row | Sequence | protein stability index (Saccharomyces cerevisiae [1]; [3]) | protein stability index (Saccharomyces cerevisiae [1]; [4]) | protein stability index (Saccharomyces cerevisiae [1]; [5]) | protein stability index (Saccharomyces cerevisiae [1]; [6]) | protein stability index (Saccharomyces cerevisiae [1]; [7]) | protein stability index (Saccharomyces cerevisiae [1]; [8]) | protein stability index (Saccharomyces cerevisiae [1]; [9]) | protein stability index (Saccharomyces cerevisiae [2])
20 | VPSPWLIRSLMS | 0.648 ± 0.024 | 0.687 ± 0.019 | 0.643 ± 0.037 | 0.716 ± 0.026 | 0.224 ± 0.0045 | 0.278 ± 0.026 | 0.518 ± 0.039 | 0.409 ± 0.023
21 | VQLFCLRREMII | 0.544 ± 0.025 | 0.609 ± 0.009 | 0.503 ± 0.027 | 0.583 ± 0.043 | 0.335 ± 0.0084 | 0.365 ± 0.019 | 0.506 ± 0.013 | 0.381 ± 0.0047
22 | VRELGVGGWRRQ | 0.58 ± 0.08 | 0.7 ± 0.0064 | 0.619 ± 0.016 | 0.752 ± 0.004 | 0.11 ± 0.012 | 0.129 ± 0.012 | 0.405 ± 0.0063 | 0.283 ± 0.01
23 | VRLLLIFRLLVI | 0.463 ± 0.0077 | 0.539 ± 0.013 | 0.417 ± 0.039 | 0.551 ± 0.0066 | 0.2909 ± 0.0022 | 0.267 ± 0.038 | 0.447 ± 0.02 | 0.299 ± 0.09
24 | VRNYWKYVVIFP | 0.624 ± 0.0047 | 0.711 ± 0.023 | 0.617 ± 0.0079 | 0.7338 ± 0.0065 | 0.578 ± 0.011 | 0.569 ± 0.023 | 0.674 ± 0.068 | 0.569 ± 0.15
25 | VSCFIVSFWVFL | 0.389 ± 0.0086 | 0.461 ± 0.033 | 0.355 ± 0.02 | 0.546 ± 0.008 | 0.309 ± 0.034 | 0.323 ± 0.031 | 0.495 ± 0.052 | 0.471 ± 0.012
26 | VSFEFSVLWTVF | 0.548 ± 0.073 | 0.592 ± 0.028 | 0.515 ± 0.022 | 0.574 ± 0.029 | 0.384 ± 0.016 | 0.383 ± 0.017 | 0.469 ± 0.005 | 0.46 ± 0.018
27 | VSLCVVYGLVVG | 0.337 ± 0.024 | 0.377 ± 0.022 | 0.29 ± 0.029 | 0.446 ± 0.015 | 0.2523 ± 0.0025 | 0.289 ± 0.022 | 0.411 ± 0.0082 | 0.373 ± 0.017
28 | VSLIFCLFFLSC | 0.424 ± 0.0047 | 0.502 ± 0.044 | 0.402 ± 0.018 | 0.52 ± 0.0063 | 0.395 ± 0.024 | 0.404 ± 0.027 | 0.492 ± 0.027 | 0.442 ± 0.013
29 | VSTVCLDFSPFL | 0.692 ± 0.065 | 0.7662 ± 0.0043 | 0.65 ± 0.018 | 0.781 ± 0.017 | 0.668 ± 0.0078 | 0.66 ± 0.007 | 0.73714 ± 5.4e-05 | 0.755 ± 0.043
30 | VTSVARVVLHLL | 0.526 ± 0.018 | 0.681 ± 0.031 | 0.606 ± 0.027 | 0.7016 ± 0.0041 | 0.0931 ± 0.019 | 0.115 ± 0.021 | 0.165 ± 0.0027 | 0.3069 ± 0.0026
31 | VVCPCIIYVPGV | 0.619 ± 0.039 | 0.643 ± 0.011 | 0.455 ± 0.014 | 0.637 ± 0.011 | 0.455 ± 0.016 | 0.461 ± 0.0066 | 0.613 ± 0.021 | 0.466 ± 0.022
32 | VVFLLGPLVCGG | 0.5042 ± 0.0031 | 0.514 ± 0.018 | 0.392 ± 0.021 | 0.535 ± 0.0069 | 0.375 ± 0.016 | 0.397 ± 0.019 | 0.5125 ± 0.0021 | 0.44 ± 0.025
33 | VVFVGRSIVVLT | 0.508 ± 0.019 | 0.525 ± 0.014 | 0.358 ± 0.038 | 0.567 ± 0.019 | 0.336 ± 0.037 | 0.371 ± 0.03 | 0.519 ± 0.019 | 0.419 ± 0.047
34 | VVFWFPFVLRCC | 0.0644 ± 0.019 | 0.0927 ± 0.0061 | 0.193 ± 0.03 | 0.2959 ± 0.0026 | 0.0639 ± 0.0037 | 0.0509 ± 0.0053 | 0.072 ± 0.034 | 0.065 ± 0.017
35 | VVFWWGHLLVSA | 0.03535 ± 6.3e-05 | 0.0483 ± 0.016 | 0.118 ± 0.031 | 0.113 ± 0.009 | 0.0877 ± 0.021 | 0.0919 ± 0.021 | 0.0854 ± 0.0074 | 0.142 ± 0.024
36 | VVLVVVWWGGVE | 0.242 ± 0.051 | 0.421 ± 0.074 | 0.249 ± 0.034 | 0.4872 ± 0.0025 | 0.21 ± 0.003 | 0.258 ± 0.029 | 0.403 ± 0.036 | 0.3931 ± 0.00072
37 | VVMASSIIVVAG | 0.0539 ± 0.0055 | 0.0512 ± 0.027 | 0.11 ± 0.097 | 0.216 ± 0.0022 | 0.105 ± 0.029 | 0.142 ± 0.058 | 0.167 ± 0.027 | 0.2528 ± 0.001

Source: the supplement of paper PMC10724198
